Results: patent US20040157314A1, “Inhibitors of Staphylococcus aureus primary sigma factor and uses thereof” (priority 2003, published 2004)

Assays:
[1] = molecular target: T1, reconstituted holoenzyme from HK-STAAU_R12 and S. aureus core enzyme (Staphylococcus aureus, UniProt P0A0J0); test: In vitro transcription and TCA precipitation assay, 96-well; assay type: biochemical; details: 10 μM, FIG. 8
T1 construct: made in house; S. aureus RN4220 transformed with pTMHB rpoA (core enzyme)
Text: In order to convert this gel-based transcription assay to a 96-well high through put format, we used an in vitro transcription assay followed by a TCA precipitation step in order to separate radiolabeled nucleotides incorporated into nucleic acid from unincorporated label. Such format is convenient as it will allow rapid screening with a large collection of compounds. In this TCA precipitation assay, we reconstituted the holoenzyme from STAAU_R12 and S. aureus core enzyme instead of using the E. coli core enzyme with STAAU_R12.
The E. coli core enzyme (Epicentre) was used as a positive control for monitoring transcription efficiency. The set up of high throughput screening assay for STAAU_R12 is illustrated in FIG. 7. […] UTP (3000 Ci/mmole), 1 U of RNasin (Promega) and 40 ng of pTMSM template DNA (a pTM derivative vector). To investigate the in vitroeffectofG1ORF67 on STAAU_R12 mediated transcriptional activation, G1ORF67 and a negative control (10 μM) were added to the mixture and the reaction was incubated for 1 h at 37° C. in a 96-well PCR-plate (BD-Falcon™). […] After filtration, the wells were washed 3 times (225 μl per wash) with 10% TCA, 2 times (225 μl per wash) with 95% ethanol and then 75 μl of liquid scintillation cocktail was added and the plates were counted for 30 s on a Trilux™ Microbeta counter (Perkin Elmer-Packard).

STAAU_R12 [2] = molecular target: T2, STAAU_R12 (Staphylococcus aureus, UniProt P0A0J0); test: Yeast two-hybrid analysis; assay type: cell-based; set-up: expressed in transfected cells; host or cells: yeast strain AH109 (Clontech); details: yeast AH109
T2 sequence (P0A0J0 whole entry): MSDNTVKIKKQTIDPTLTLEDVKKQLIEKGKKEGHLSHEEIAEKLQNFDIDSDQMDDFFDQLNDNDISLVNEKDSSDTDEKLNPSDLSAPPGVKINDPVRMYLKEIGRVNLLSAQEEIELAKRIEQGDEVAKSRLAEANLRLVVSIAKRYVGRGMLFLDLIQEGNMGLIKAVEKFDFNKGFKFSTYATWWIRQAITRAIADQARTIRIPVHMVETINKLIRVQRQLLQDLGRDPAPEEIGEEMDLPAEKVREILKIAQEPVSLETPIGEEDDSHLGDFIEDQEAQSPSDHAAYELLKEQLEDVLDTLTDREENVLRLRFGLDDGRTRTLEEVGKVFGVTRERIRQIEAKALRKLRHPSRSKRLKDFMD
Text: To validate the interaction between G1ORF67 and STAAU_R12, we first performed yeast two-hybrid analyses with full length and deletions within both STAAU_R12 and G1ORF67. The inserts were cloned into pGADT7™ and pGBK™, the yeast vectors for two hybrid system studies (Clontech Laboratories) as fusions with the Gal4 activation domain (for pGADT7™) as well as with the Gal4 DNA-binding domain (for pGBK™). pGADT7 and pGBK recombinant plasmids bearing different combinations of constructs were introduced into a yeast strain (AH109, Clontech Laboratories), previously engineered to contain chromosomally-integrated copies of E. coli lacZand the selectable HIS3 and ADE2 genes. […]
To define the minimal region of STAAU_R12 conferring an interaction with G1ORF67, six deletions of STAAU_R12 were cloned into pGADT7 and introduced into AH109 yeast cells with the pGBK vector containing the full length sequence of G1ORF67. The resulting co-transformants were analyzed for their ability to induce expression of reporter genes.
To define the minimal region of G1ORF67 conferring an interaction with STAAU_R12, six deletions of G1ORF67 were cloned into pGADT7 and introduced into AH109 yeast cells with the pGBK vector containing the full length sequence of STAAU_R12. The resulting co-transformants were analyzed for their ability to induce expression of reporter genes required for viability on selective medium.

HK-STAAU_R12 [3] = molecular target: T3, HK-STAAU_R12 (Staphylococcus aureus, UniProt P0A0I8 1-368); test: TR-FRET, 32 nM of both GB-G1ORF67 and HK-STAAU_R12
T3 construct: not shown: N-terminal 6x histidine tag and heart muscle kinase (HMK) phosphorylation site of vector pH6K
T3 sequence (P0A0I8 whole entry): as the sequence (P0A0J0 whole entry) above

HK-STAAU_R12 [4] = molecular target: T3, HK-STAAU_R12; test: TR-FRET competition, untagged G1ORF67 against 32 nM GB-G1ORF67 on 32 nM HK-STAAU_R12
STAAU_R12 [5] = molecular target: T2, STAAU_R12; test: Far Western analysis with 32P-labeled HK-STAAU_R12 probe; assay type: binding; set-up: made in house; host or cells: E. coli BL21; details: 100 ng to 2 μg immobilised protein, FIG. 4
Method: Radiolabeling of the proteins was done through the heart muscle phosphate acceptor site with the heart muscle kinase enzyme (HMK). The labeled probe was incubated with immobilized target protein, and the interaction was detected by exposure to X-ray film after extensive washes.
For radiolabeling with […], 10-15 μg of STAAU_R12 fused to 6× histidine and the HMK kinase acceptor domain (HK-STAAU_R12) were incubated with 50 units of the catalytic sub-unit of cAMP-dependent protein kinase (Heart Muscle Kinase; Sigma) in a total volume of 100 μl containing 20 mM Tris pH 7.5, 100 mM NaCl, 12 mM MgCl2, 1 mM DTT and 50 μCi of [γ^32P]-ATP (3000 Ci/mmole) (NEN/Mandel) for 30 min at room temperature. To remove free nucleotides, the protein was applied to a Sephadex-G50™ column and eluted with Z-buffer (25 mM Hepes pH 7.7, 12.5 mM MgCl2, 20% glycerol, 100 mM KCl & 1 mM DTT) and the incorporation of γ^32P-ATP was determined by counting in a liquid scintillation counter.
Increasing amounts (from 100 ng to 2 μg) of HB-G1ORF67 and as a negative control, 77ORF104 protein (2 μg) were used for Far-western analysis. Proteins were resolved by 15% SDS-PAGE and transferred onto a nitrocellulose membrane (Millipore). […]

[6] = molecular target: STAAU_R12 with E. coli core and biotinylated λPR oligonucleotide (Staphylococcus aureus, UniProt P0A0J0); assay type: biochemical; details: 0 to 4 μM; 32 nM HK-STAAU_R12, 45 nM biotinylated DNA
Chain of STAAU_R12 with E. coli core and biotinylated λPR oligonucleotide (P0A0J0 whole entry): as above
Method: We developed a fluorescence-based high throughput assay to monitor the interaction of STAAU_R12 with its cognate DNA. […] Europium cryptate (Eu) labeled anti-Histidine was used as an energy donor and Allophycocyanin (APC) labeled streptavidin was used as an energy acceptor.
The reaction was incubated for 15 min at room temperature and then, 6 μl of a mixture of Eu-conjugated anti-Histidine (CIS International) and APC-conjugated streptavidin (Prozyme) were added to final concentrations of 3 and 15 nM, respectively. Samples were mixed and 25 μl of the mixture was transferred to a 96-well opaque plate (Molecular Devices). After 45 min incubation at room temperature, the emission at 665 nm (APC) and at 612 nm (Eu) arising from excitation as 340 nm was measured using a Tecan Ultra™ plate reader. […] A mutated version of untagged λPR oligonucleotide consisting of a substitution of the −35 region (from TTGACT in the wild type PR oligonucleotide to ACTTTG in the mutated oligonucleotide) was used as a non specific competitor. Competitors were added to the reaction mixture prior to addition of Eu and APC conjugates.

S. aureus RN4220 = test: Growth kinetics assay (CFU) of S. aureus clones expressing phage ORF under arsenite-inducible promoter; assay type: cell-based, Staphylococcus aureus
Text: Bacteriophage ORFs encoded in phage G1 genome were identified as follows: beginning at the first nucleotide, the phage G 1 genome sequence is scanned for a start codon. When one is identified, the number of in-frame codons is counted until a termination codon is reached. A minimum threshold of 33 codons defines this bounded sequence as an ORF. This procedure is repeated, starting at the next nucleotide following the last stop codon, until the end of the phage sequence is reached. The scan is performed in an identical manner on all three reading frames of both DNA strands of the phage sequence, in order to identify all the putative ORFs. Putative genes are then identified based on the presence of a Shine-Dalgarno sequence within the 15 nucleotides upstream of the start codon. The E. coli-S. aureus shuttle vector pTOO21 (Tauriainen et al., Appl. Environ. Microbiol. (1997) 63:4456-64), containing the arsenite-inducible ars promoter and the arsR gene, was modified with an optimal Shine-Dalgarno sequence (AGGAGG) followed by a multiple cloning site (MCS). DNA encoding individual phage ORFs was amplified by PCR from phage genomic DNA and cloned into the MCS of the modified vector. […]

[7] = molecular target: holoenzyme reconstituted from STAAU_R12 and E. coli core RNA polymerase (Staphylococcus aureus, UniProt P0A0J0); test: In vitro transcription assay (polyacrylamide/urea gel), reconstituted holoenzyme; assay type: biochemical; details: pre-incubation with STAAU_R12, 0 to 2 μM, FIG. 6B
Chain of holoenzyme reconstituted from STAAU_R12 and E. coli core RNA polymerase (P0A0J0 whole entry): as above
Method: (§1) The E. coli holoenzyme (Epicentre) was used at 10 nM as a positive control for monitoring transcription efficiency. Assays were done with increasing amounts (0 to 500 nM) of STAAU_R12 and 25 nM of E. coli core in a total volume of 25 μl containing 40 mM Tris-acetate pH 7.9, 100 mM NaCl, 5 mM MgCl2, 1 mM DTT, 0.1 mg/ml BSA, 0.5 mM of each ATP, GTP, CTP, 0.25 mM UTP, 5 μCi [^32P] UTP (3000 Ci/mmole), 2 units of RNasin (Promega) and 40 ng of pB6 template DNA (Lutz and Bujard, Nuc. Acid Res. (1997) 6:1203-10) harboring λPL promoter, kanamycin gene and the Col E1 RNA-1. […] Reactions were incubated at 37° C. for 15 min and stopped by addition of 5 μl of loading buffer (95% formamide, 20 mM EDTA and 0.05% of each xylene cyanol and bromophenol blue). Samples were boiled for 5 min and electrophoresed on a 6% polyacrylamide/8 M urea gel.

[8] = molecular target: E. coli holoenzyme (E. coli sigma factor and E. coli core RNA polymerase) (Escherichia coli, UniProt P00579); details: pre-incubation with E. coli holoenzyme, FIG. 6C
Method: as §1

[9] = molecular target: STAAU_R12 full length fused to the Gal4 activation domain (p[…]_R12) (Staphylococcus aureus, UniProt P0A0I8 1-368); test: yeast two-hybrid, AH109
Chain of STAAU_R12 full length fused to the Gal4 activation domain (p[…]_R12) (P0A0I8 whole entry, the tested form may be a part): as the sequence (P0A0J0 whole entry) above

[10] = molecular target: SV40 large T antigen (pGADT7-LargeT) (SV40, UniProt P03070 86-708); test: yeast two-hybrid, AH109
Chain of SV40 large T antigen (pGADT7-LargeT) (P03070 86-708 limits assumed): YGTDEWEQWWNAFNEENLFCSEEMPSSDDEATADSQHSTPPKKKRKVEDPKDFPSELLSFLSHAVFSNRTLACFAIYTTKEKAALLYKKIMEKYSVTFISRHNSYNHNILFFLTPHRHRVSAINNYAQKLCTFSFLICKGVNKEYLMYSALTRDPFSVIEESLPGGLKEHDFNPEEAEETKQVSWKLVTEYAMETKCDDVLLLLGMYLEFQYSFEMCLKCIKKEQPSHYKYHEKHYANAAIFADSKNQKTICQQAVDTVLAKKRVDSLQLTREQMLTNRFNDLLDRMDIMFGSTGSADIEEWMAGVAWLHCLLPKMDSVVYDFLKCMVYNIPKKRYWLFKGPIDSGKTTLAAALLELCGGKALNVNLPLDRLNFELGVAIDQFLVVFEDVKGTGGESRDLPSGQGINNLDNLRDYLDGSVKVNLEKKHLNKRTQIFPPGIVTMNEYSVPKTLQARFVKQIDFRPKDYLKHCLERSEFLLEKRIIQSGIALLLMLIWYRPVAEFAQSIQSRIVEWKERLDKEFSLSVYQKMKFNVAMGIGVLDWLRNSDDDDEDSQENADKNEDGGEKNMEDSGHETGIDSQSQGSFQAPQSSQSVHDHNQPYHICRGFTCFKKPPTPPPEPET

T1 sequence (P0A0J0 whole entry): as the sequence (P0A0J0 whole entry) above

GST: glutathione-S-transferase protein used as a negative control [reference compound]
inhibition of STAAU_R12 mediated transcriptional activation (TCA precipitation) [1]: did not show any inhibition

B1: G1ORF67—50—198: 149 amino acid fragment of G1ORF67, amino acids residues 50 to 198 (SEQ ID NO: 8) (protein)
chain: NGEYLELKRLRSTLPSSYGLDDNNQDIIRDNNHRCKIGYWYNPAVRKDNLKIIEKAKQYGLPIITEEYDANTVEQGFRDIGVIFQSLKTIVVTRYLEGKTEEELRIFNMKSEESQLNEALKESDFSVDLTYSDLGQIYNMLLLMKKISK
modifications: Bacteriophage G1
interaction with full length STAAU_R12 (growth on SD THAL minus medium) (STAAU_R12 [2]): found to interact

B2: GB-G1ORF67 (other)
chain: MKLKILDKDNATLNVFHRNKEHKTIDNVPTANLVDWYPLSNAYEYKLSRNGEYLELKRLRSTLPSSYGLDDNNQDIIRDNNHRCKIGYWYNPAVRKDNLKIIEKAKQYGLPIITEEYDANTVEQGFRDIGVIFQSLKTIVVTRYLEGKTEEELRIFNMKSEESQLNEALKESDFSVDLTYSDLGQIYNMLLLMKKISK
notes: also called GST-Bio fusion of G1ORF67; GST-tagged G1ORF67
TR-FRET signal-to-background (HK-STAAU_R12 [3]): 30 ratio (to 1)

B3: untagged G1ORF67 (other)
chain: B2 chain
notes: also called G1ORF67 with GST portion removed by PreScission protease; not shown: the bioti
IC50 (HK-STAAU_R12 [4]): ~30 nM

B4: HB-G1ORF67: G1ORF67 fused N-terminally to 6× Histidine residues and a biotin acceptor domain, purified from E. coli (protein)
chain: B2 chain
modifications: left off: small tags and cut ends
notes: G1ORF67 fused N-terminally to 6× Histidine residues and a biotin acceptor domain, purified from E. coli
interaction with labeled STAAU_R12 probe (STAAU_R12 [5]): directly interacts with STAAU_R12 in a dose-dependent manner

B5: G1ORF67: 198 amino acids protein from S. aureus bacteriophage G1 (SEQ ID NO: 7), anti-primary sigma factor (protein)
chain: B2 chain
modifications: Bacteriophage G1
reduction of the TR-FRET signal (core-dependent DNA binding of STAAU_R12) [6]: 7 fold | number of CFU in cells expressing the ORF (S. aureus RN4220; S. aureus RN4220, induced with 5 μM NaAsO2, FIG. 1): significantly reduced | type of growth inhibitory effect on S. aureus (S. aureus RN4220; expression of the ORF in S. aureus): bacteriostatic | inhibition of STAAU_R12-mediated transcriptional activation [7]: dramatic inhibition | effect on transcription by E. coli holoenzyme [8]: did not affect transcription | inhibition of STAAU_R12 mediated transcriptional activation (TCA precipitation) [1]: dramatic inhibition

B6: LaminC (pGBKT7LaminC) (other)
chain: MKLLSSIEQACDICRLKKLKCSKEKPKCAKCLKNNWECRYSPKTKRSPLTRAHLTEVESRLERLEQLFLLIFPREDLDMILKMDSLQDIKALLTGLFVQDNVNKDAVTDRLASVETDMPLTLRQHRISATSSSEESSNKGQRQLTVSSEEVVSREVSGIKAAYEAELGDARKTLDSVAKERARLQLELSKVREEFKELKARNTKKEGDLIAAQARLKDLEALLNSKEAALSTALSEKRTLEGELHDLRGQVAKLEAALGEAKKQLQDEMLRRVDAENRLQTMKEELDFQKNIYSEELRETKRRHETRLVEID
binding result [9]: no binding

B7: G1ORF67 full length fused to the Gal4 DNA-binding domain (G1pGBKORF67) (other)
chain: MKLLSSIEQACDICRLKKLKCSKEKPKCAKCLKNNWECRYSPKTKRSPLTRAHLTEVESRLERLEQLFLLIFPREDLDMILKMDSLQDIKALLTGLFVQDNVNKDAVTDRLASVETDMPLTLRQHRISATSSSEESSNKGQRQLTVSMKLKILDKDNATLNVFHRNKEHKTIDNVPTANLVDWYPLSNAYEYKLSRNGEYLELKRLRSTLPSSYGLDDNNQDIIRDNNHRCKIGYWYNPAVRKDNLKIIEKAKQYGLPIITEEYDANTVEQGFRDIGVIFQSLKTIVVTRYLEGKTEEELRIFNMKSEESQLNEALKESDFSVDLTYSDLGQIYNMLLLMKKISK
binding result [10]: no binding
